# US20110008829
# B1: HMGR with an N-terminal SH3 domain (protein)
# chain: AEYVRALFDFNGNDEEDLPFKKGDILRIRDKPEEQWWNAEDSEGKRGMIPVPYVEKYRVLTNKTVISGSKVKSLSSAQSSSSGPSSSSEEDDSRDIESLDKKIRPLEELEALLSSGNTKQLKNKEVAALVIHGKLPLYALEKKLGDTTRAVAVRRKALSILAEAPVLASDRLPYKNYDYDRVFGACCENVIGYMPLPVGVIGPLVIDGTSYHIPMATTEGCLVASAMRGCKAINAGGGATTVLTKDGMTRGPVVRFPTLKRSGACKIWLDSEEGQNAIKKAFNSTSRFARLQHIQTCLAGDLLFMRFRTTTGDAMGMNMISKGVEYSLKQMVEEYGWEDMEVVSVSGNYCTDKKPAAINWIEGRGKSVVAEATIPGDVVRKVLKSDVSALVELNIAKNLVGSAMAGSVGGFNAHAANLVTAVFLALGQDPAQNVESSNCITLMKEVDGDLRISVSMPSIEVGTIGGGTVLEPQGAMLDLLGVRGPHATAPGTNARQLARIVACAVLAGELSLCAALAAGHLVQSHMTHNRKPAEPTKPNNLDATDINRLKDGSVTCIKS
# Columns and labels:
# [1] = biological target: T1, HMGS with 6 SH3 peptide ligands recombined to the C-terminus, P54839
# T1 sequence (P54839 whole entry, looked up): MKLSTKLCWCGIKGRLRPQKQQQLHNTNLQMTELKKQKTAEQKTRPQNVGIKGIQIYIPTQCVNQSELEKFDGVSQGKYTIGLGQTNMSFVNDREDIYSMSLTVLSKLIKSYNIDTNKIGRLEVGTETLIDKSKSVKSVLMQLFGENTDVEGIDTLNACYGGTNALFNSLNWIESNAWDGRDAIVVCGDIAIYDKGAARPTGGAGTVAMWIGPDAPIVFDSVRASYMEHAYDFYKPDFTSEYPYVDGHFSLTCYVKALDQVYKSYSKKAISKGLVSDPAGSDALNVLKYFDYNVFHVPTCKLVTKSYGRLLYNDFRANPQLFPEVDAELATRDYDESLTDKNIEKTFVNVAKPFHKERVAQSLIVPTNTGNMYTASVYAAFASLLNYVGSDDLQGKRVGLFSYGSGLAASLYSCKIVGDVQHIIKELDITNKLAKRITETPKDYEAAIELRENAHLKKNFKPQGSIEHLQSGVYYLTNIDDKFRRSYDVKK
# [2] = biological target: T2, HMGS with 12 SH3 peptide ligands recombined to the C-terminus, P54839
# T2 sequence (P54839 whole entry, looked up): T1 sequence (P54839 whole entry, looked up)
protein,measurement,setting,value
B1,"mevalonate production in E. coli, improvement",[1],mevalonate production reached a maximum ˜10-fold improvement with 6 possible interactions
same,"mevalonate production in E. coli, improvement",[2],reduced somewhat (to 7-fold) when the number of possible interactions was further increased
